In experiment [1] the target is T1, human CXCR4 (human, UniProt P61073 1-352). The experiment is described as follows: cell-based or functional assay.
For experiment [2], the target named is T1, human CXCR4. The experiment is described as follows: cell-based or functional assay. The source holds these as a separate data set.
Experiment [3] addresses T1, human CXCR4. Kind of experiment: FACS binding under antigen limiting conditions on Jurkat cells, Kinexa software fit. The protocol: FACS binding under antigen limiting conditions was utilized to estimate the affinities of antibodies to the CXCR4 receptor. Jurkat cells were washed in RPMI1640 medium and plated at 50,000 cells per well in duplicate for incubation with 4-fold dilution series of antibody in duplicate, ranging between 150,000 and 0.143 pM. Incubation was carried out at 4° C. overnight, followed by wash step (3 times in PBS) and staining with Goat anti-human Fc−Cy5 secondary antibody+5 μg/mL 7-Amino-Actinomycin (7AAD) for 40 minutes at 4° C. Samples were analyzed on a FACSCaliber following another round of 3 washes in PBS. […] The negative geo mean was entered into Kinexa analysis software as an estimate of antibody “depletion” under limited antigen conditions, and the equilibrium dissociation constant (KD) was estimated from the curve fit.
Background: Flow cytometry measures light scatter and fluorescence of single cells or particles in a stream.

The target in experiment [4] is T1, human CXCR4. The experiment is described as follows: FMAT, hybridoma supernatant on HEK293T cells transiently overexpressing full-length human CXCR4. The protocol: (§1) Supernatants collected from harvested cells were tested to assess the ability of the secreted antibodies to bind to HEK293T cells transiently overexpressing either full-length human, murine or cynomolgus monkey CXCR4. […] Cells diluted in PBS containing 2% FBS were seeded at a density of 3000 expressing and 15000 mock transfected cells per well in 384 well plates (Corning Costar, catalog #3712). Immediately after plating, 15 or 20 μl/well of hybridoma supernatants and 10 μl/well of secondary antibody (Goat anti-human IgG Fc Cy5, final concentration 750 ng/ml) were added and plates incubated for 3 hours at room temperature prior to reading the fluorescence on the FMAT 8200 instrument (Applied Biosystems). The product of number of positive events and fluorescence intensity was used as a measure of binding strength.

The target of experiment [5] is T2, cynomolgus monkey CXCR4 (cynomolgus monkey, UniProt Q28474 1-352).
T2 construct: whole, on cells; On transiently transfected HEK293T cells or endogenous on the cynomolgus T-cell line HSC-F; also called Cynomolgus CXCR4
T2 sequence (Q28474 whole entry): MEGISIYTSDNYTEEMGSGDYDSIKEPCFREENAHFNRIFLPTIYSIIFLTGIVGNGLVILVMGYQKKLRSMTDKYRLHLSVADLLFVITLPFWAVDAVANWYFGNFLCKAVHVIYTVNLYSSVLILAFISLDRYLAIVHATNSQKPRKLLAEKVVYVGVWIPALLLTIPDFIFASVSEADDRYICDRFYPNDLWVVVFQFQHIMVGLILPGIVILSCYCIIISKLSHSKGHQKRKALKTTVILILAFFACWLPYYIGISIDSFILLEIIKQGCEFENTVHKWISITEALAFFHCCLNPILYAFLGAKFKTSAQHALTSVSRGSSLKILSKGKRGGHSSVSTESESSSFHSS
The experiment is described as follows: FMAT, hybridoma supernatant on HEK293T cells transiently overexpressing full-length cynomolgus CXCR4. The protocol: as §1

Experiment [6] deals with T1, human CXCR4. Kind of experiment: FACS, hybridoma supernatant pre-incubated with human CXCR4 transfected HEK293T cells, competitor Alexa-647 SDF-1.
Another experiment deals with T3, CCR4 (human, UniProt P51679 1-360).
T3 construct: whole, on cells
T3 sequence (looked up): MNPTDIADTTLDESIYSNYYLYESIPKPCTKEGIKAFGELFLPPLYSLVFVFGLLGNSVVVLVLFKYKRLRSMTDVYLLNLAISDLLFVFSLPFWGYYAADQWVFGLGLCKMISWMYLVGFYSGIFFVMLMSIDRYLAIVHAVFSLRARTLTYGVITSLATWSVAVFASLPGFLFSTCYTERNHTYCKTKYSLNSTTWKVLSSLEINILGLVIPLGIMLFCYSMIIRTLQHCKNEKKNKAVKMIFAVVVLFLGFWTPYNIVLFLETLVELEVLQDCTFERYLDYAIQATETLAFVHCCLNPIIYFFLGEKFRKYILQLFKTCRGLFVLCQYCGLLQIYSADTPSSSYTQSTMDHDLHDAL
The experiment is described as follows: FACS on CCR4 transfected CHO cells, parental cells as control. How it is done: (§2) CXCR4 is a GPCR, with few close homologues in the family of human GPCRs. Among these are CXCR3 and CCR4. […] The samples were analyzed on a FACS Caliber cytometer.

Another experiment addresses T4, human CXCR3 (human, UniProt P49682 1-368).
T4 construct: whole, on cells
T4 sequence (looked up): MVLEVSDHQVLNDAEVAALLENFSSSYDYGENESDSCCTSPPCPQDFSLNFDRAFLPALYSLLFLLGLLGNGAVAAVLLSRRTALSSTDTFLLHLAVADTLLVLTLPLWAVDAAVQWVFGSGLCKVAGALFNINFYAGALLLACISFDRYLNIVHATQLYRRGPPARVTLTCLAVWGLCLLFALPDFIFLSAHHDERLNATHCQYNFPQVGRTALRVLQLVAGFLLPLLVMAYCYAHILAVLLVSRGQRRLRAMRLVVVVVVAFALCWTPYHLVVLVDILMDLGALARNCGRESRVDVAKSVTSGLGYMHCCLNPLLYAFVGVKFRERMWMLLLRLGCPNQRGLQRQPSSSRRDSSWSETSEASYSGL
Kind of experiment: FACS on human CXCR3 transfected HEK293 cells, parental cells as control. How it is done: as §2

The next experiment deals with T5, mouse CXCR4 (mouse, UniProt P70658 1-359).
T5 construct: Full-length murine CXCR4 on transiently transfected HEK293T cells; also native on mouse lymphocytes and the EL4 line; also called murine CXCR4
T5 sequence (P70658 whole entry): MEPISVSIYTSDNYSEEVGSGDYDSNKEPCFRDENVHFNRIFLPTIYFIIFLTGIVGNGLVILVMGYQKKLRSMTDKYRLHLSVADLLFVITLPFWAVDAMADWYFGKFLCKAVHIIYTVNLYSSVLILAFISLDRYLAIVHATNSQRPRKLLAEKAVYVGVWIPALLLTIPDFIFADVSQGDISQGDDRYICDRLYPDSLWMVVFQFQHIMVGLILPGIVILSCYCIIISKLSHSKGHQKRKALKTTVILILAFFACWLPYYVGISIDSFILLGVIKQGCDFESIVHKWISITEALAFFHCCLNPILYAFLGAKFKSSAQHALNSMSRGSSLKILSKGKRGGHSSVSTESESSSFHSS
The experiment is described as follows: FMAT, hybridoma supernatant on HEK293T cells transiently overexpressing full-length mouse CXCR4. How it is done:
as §1

The target in experiment [7] is T1, human CXCR4. Kind of experiment: cell-based or functional assay. The source holds these as a separate data set.
For experiment [8], the target named is T1, human CXCR4. The experiment is described as follows: cell-based or functional assay. The source holds these as a separate data set.
In experiment [9] the target is T2, cynomolgus monkey CXCR4. The experiment is described as follows: FACS binding titration on HSC-F cells (cyno CXCR4), Kinexa model fit.
Experiment [10] has as its target T1, human CXCR4. Kind of experiment: FACS binding titration on Namalwa cells (human CXCR4), Kinexa model fit.

By Kd is commonly meant the concentration at which binding is half-saturated.

Positions count from the first letter of the chain named. Where two headings read alike, the source gives them in different places.

T1 sequence (P61073 whole entry): as the sequence (Q28474 whole entry) above, with I24M, H35N, R38K, K146R, S176N counted along it

B1: 5E1 (antibody, V domains shown)
VH: EVQLLESGGGLVQPGGSLRLSCAASGFTFSSFAMNWVRQAPGKGLEWVSAISGSGGNIYYADSVRGRFTISRDNSKNTLYLQMNSLRAEDTAVYYCAKVDRNLGYYHGMDVWGQGTTVTVSS
VL: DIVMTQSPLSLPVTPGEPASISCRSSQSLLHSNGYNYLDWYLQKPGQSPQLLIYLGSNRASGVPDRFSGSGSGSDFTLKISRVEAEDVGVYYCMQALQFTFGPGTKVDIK
notes: Fully human monoclonal antibody from XenoMouse hybridoma
B1: in the experiment with human CXCR4 [1], the “% Inhibition 1 hr (Jurkat chemotaxis)” value was determined as 70% and the “% Inhibition 24 hr (Jurkat chemotaxis)” value is -20%. Further, in the experiment with human CXCR4 [2], the “Jurkat chemotaxis inhibition IC50 pM” value was found to be 14200 pM and the “Jurkat chemotaxis inhibition IC50” value turned out to be 2.12 µg/mL. In addition, the Kd in the experiment with human CXCR4 [3] turned out to be 0.045 nM. Further, in the experiment with human CXCR4 [4], the Count was determined as 213, the FL1 stood at 7750 and the FL1 x count turned out to be 1.65e+06. Moreover, in the experiment with cynomolgus monkey CXCR4 [5], the Count stood at 130, the FL1 was found to be 12900 and the FL1 x count turned out to be 1.68e+06. Moreover, in the experiment with human CXCR4 [6], the “% Inhibition of SDF-1 binding” value is 1%.

B2: 4C1 (antibody, V domains shown)
VH: QVQLVESGGGVVQPGRSLRLSCAASGFTFSSYGMHWVRQAPGKGLEWVAVISYDGSNKYYADSVKGRFTISRDNSKNTLYLQMNSLRAEDTAVYYCTRGGLAARRNYYYSYGMDVWGQGTTVTVSS
VL: DIQMTQSPSSLSASVGDRVTITCRASQDIRNDLGWYQQKPGKAPKRLIYAASSLQSGVPSRFSGSGSGTQFTLTISSLQPEDFATYYCLQHNSYPLTFGGGTKVQIK
notes: Fully human monoclonal antibody from XenoMouse hybridoma (strains XMG2 IgG2 or XMG4 IgG4, kappa/lambda); Tested as hybridoma supernatant or purified antibody; also called mAb 4C1; Mab4C1
Consider B2, for which, in the experiment with human CXCR4 [1], the “% Inhibition 1 hr (Jurkat chemotaxis)” value was found to be 81.3% and the “% Inhibition 24 hr (Jurkat chemotaxis)” value is -27%. In the experiment with human CXCR4 [2], the “Jurkat chemotaxis inhibition IC50 pM” value was 1220 pM and the “Jurkat chemotaxis inhibition IC50” value came out at 0.182 µg/mL. Besides, the binding result in the experiment with CCR4 was “no binding (tested: 10 and 100 ug/ml)”. Moreover, the binding result with human CXCR3 was “no binding (tested: 10 and 100 ug/ml)”. Besides, in the experiment with human CXCR4 [3], binding was characterised by a dissociation constant (Kd) of 2.2 nM. Also, in the experiment with human CXCR4 [4], the Count was 183, the FL1 was determined as 8330 and the FL1 x count is 1.52e+06. In the experiment with mouse CXCR4, the Count was 5, the FL1 amounted to 1490 and the FL1 x count turned out to be 7440. In the experiment with cynomolgus monkey CXCR4 [5], this molecule showed a Count of 46, an FL1 of 6360 and an FL1 x count of 293000. The “% Inhibition of SDF-1 binding” value with human CXCR4 [6] came out at 35%.

B3: 7C8 (antibody, V domains shown)
VH: QVQLVESGGGVVQPGRSLRLSCAASGFTFSSYGMHWVRQAPGKGLEWVAVIWYDGTYKYYADSVRGRFTISRDNSKNTLYLQMNSLRAEDTAVYYCARGPLLRYFDWLSDYWGQGTLVTVSS
VL: B2 VL with D28G, S52T, Q70E, S93N, L96R, Q105E
notes: as for B1
With B3, in the experiment with human CXCR4 [1], the “% Inhibition 1 hr (Jurkat chemotaxis)” value was found to be 48.3% and the “% Inhibition 24 hr (Jurkat chemotaxis)” value is -34%. In addition, in the experiment with human CXCR4 [2], the “Jurkat chemotaxis inhibition IC50 pM” value was 1570 pM and the “Jurkat chemotaxis inhibition IC50” value turned out to be 0.236 µg/mL. The binding result with CCR4 was “no binding (tested: 10 and 100 ug/ml)”. In the experiment with human CXCR3, the binding result was “no binding (tested: 10 and 100 ug/ml)”. In the experiment with human CXCR4 [3], this molecule came in with a Kd of 0.363 nM. Further, in the experiment with human CXCR4 [4], the Count amounted to 184, the FL1 came to 7940 and the FL1 x count came out at 1.46e+06. In the experiment with mouse CXCR4, this molecule gave a Count of 9, an FL1 of 2400 and an FL1 x count of 21600. In the experiment with cynomolgus monkey CXCR4 [5], this molecule yielded a Count of 137, an FL1 of 4680 and an FL1 x count of 642000. The “% Inhibition of SDF-1 binding” value in the experiment with human CXCR4 [6] worked out at 75%.

B4: 2A4 (antibody, V domains shown)
VH: B2 VH with M113T
VL: B2 VL with K45T
notes: Fully human monoclonal antibody from XenoMouse hybridoma; also called mAb 2A4; Mab2A4
As to B4, in the experiment with human CXCR4 [1], the “% Inhibition 1 hr (Jurkat chemotaxis)” value was found to be 98% and the “% Inhibition 24 hr (Jurkat chemotaxis)” value came out at 76%. In the experiment with human CXCR4 [2], the “Jurkat chemotaxis inhibition IC50 pM” value was 383 pM and the “Jurkat chemotaxis inhibition IC50” value came out at 0.0574 µg/mL. Besides, the binding result with CCR4 is “no binding (tested: 10 and 100 ug/ml)”. Also, the binding result with human CXCR3 was “no binding (tested: 10 and 100 ug/ml)”. The molecule further displayed a Kd with human CXCR4 [3] of 0.82 nM. In the experiment with human CXCR4 [4], the Count was found to be 89, the FL1 amounted to 8370 and the FL1 x count amounted to 745000. In the experiment with mouse CXCR4, this molecule displayed a Count of 3, an FL1 of 954 and an FL1 x count of 2860. Moreover, in the experiment with cynomolgus monkey CXCR4 [5], the Count stood at 89, the FL1 was 6740 and the FL1 x count is 600000. The “% Inhibition of SDF-1 binding” value with human CXCR4 [6] turned out to be 42%.

B5: 6C7 IgG1TM (antibody, V domains shown)
VH: QVQLVESGGGVVQPGRSLRLSCAASGFTFSNYVMHWVRQAPGKGLEWVAVIWYDGSNKYYADSVKGRFTISRDNSKNTLSLQMNSLRAEDTAVYYCERGEGYYGSGSRYRGYYYGMDVWGQGTTVTVSS
VL: DIQMTQSPSSLSASVGDRVTITCRASQGIRTDLGWYQQKPGKAPKRLIYAASSLQSGVPSRFSGSGSGTEFTLTISSLQPEDFATYYCLQHNSYPRTFGQGTKVEIKR
notes: 6C7 variable domains on a variant IgG1 Fc (IgG1 TM); also called 6C7-TM; Anti-CXCR4 IgG1 TM
For the molecule B5, the “Jurkat chemotaxis inhibition IC50” value in the experiment with human CXCR4 [7] amounted to 0.193 nM. In the experiment with human CXCR4 [8], the “Inhibition of pMAPK Signaling IC50 (nM), Jurkat, ELISA” value turned out to be 3.1 nM. Moreover, the Kd amounted to 0.221 nM in the experiment with cynomolgus monkey CXCR4 [9] and 0.768 nM with human CXCR4 [10].

(Values after patent US20140314784A1 (MEDLMMUNE, published 2014).)
